Experimental data taken from the Human Domainome abundance scans (Beltran et al. 2025).
± gives the uncertainty stated by the source.

B1: Ankyrin repeat and SOCS box protein 14, residues 532 to 572; numbered along this chain, A6NK59 (parent)
chain: RSLKHLCRLKIRKCMGRLHLRCPVFMSFLPLPNRLKAYVLY

Variants of: B1
Assay: abundance fitness (aPCA) (normalised: wild type 0, dead -1); higher = more abundant; growth selection in yeast, the domain comes from the species named
Settings: Homo sapiens
RSLKHLCRLKIRKCTGRLHLRCPVFMSFLPLPNRLKAYVLY [M15T] gave an abundance fitness of -0.383 ± 0.07. Variant RSLKHLCRLKIRKCVGRLHLRCPVFMSFLPLPNRLKAYVLY [M15V] has an abundance fitness of -0.126 ± 0.074. With RSLKHLCRLKIRKCWGRLHLRCPVFMSFLPLPNRLKAYVLY [M15W] the abundance fitness was 0.132 ± 0.056. For RSLKHLCRLKIRKCYGRLHLRCPVFMSFLPLPNRLKAYVLY [M15Y], the abundance fitness was -0.701 ± 0.33. RSLKHLCRLKIRKCMCRLHLRCPVFMSFLPLPNRLKAYVLY [G16C] showed an abundance fitness of -0.269 ± 0.065. For RSLKHLCRLKIRKCMDRLHLRCPVFMSFLPLPNRLKAYVLY [G16D], the abundance fitness was 0.084 ± 0.31. Work on RSLKHLCRLKIRKCMERLHLRCPVFMSFLPLPNRLKAYVLY [G16E] yielded an abundance fitness of 0.355 ± 0.064. Variant RSLKHLCRLKIRKCMFRLHLRCPVFMSFLPLPNRLKAYVLY [G16F] has an abundance fitness of -0.152 ± 0.094. With RSLKHLCRLKIRKCMHRLHLRCPVFMSFLPLPNRLKAYVLY [G16H] the abundance fitness was 0.024 ± 0.077. Variant RSLKHLCRLKIRKCMKRLHLRCPVFMSFLPLPNRLKAYVLY [G16K] has an abundance fitness of 0.092 ± 0.089. Work on RSLKHLCRLKIRKCMLRLHLRCPVFMSFLPLPNRLKAYVLY [G16L] yielded an abundance fitness of 0.102 ± 0.052. In the case of RSLKHLCRLKIRKCMNRLHLRCPVFMSFLPLPNRLKAYVLY [G16N], the abundance fitness is reported as 0.231 ± 0.15. RSLKHLCRLKIRKCMPRLHLRCPVFMSFLPLPNRLKAYVLY [G16P] showed an abundance fitness of -0.105 ± 0.061. Work on RSLKHLCRLKIRKCMQRLHLRCPVFMSFLPLPNRLKAYVLY [G16Q] yielded an abundance fitness of 0.356 ± 0.05. RSLKHLCRLKIRKCMRRLHLRCPVFMSFLPLPNRLKAYVLY [G16R] gave an abundance fitness of 0.121 ± 0.045. Variant RSLKHLCRLKIRKCMTRLHLRCPVFMSFLPLPNRLKAYVLY [G16T] has an abundance fitness of 0.12 ± 0.056. Variant RSLKHLCRLKIRKCMWRLHLRCPVFMSFLPLPNRLKAYVLY [G16W] has an abundance fitness of -0.058 ± 0.057. RSLKHLCRLKIRKCMGALHLRCPVFMSFLPLPNRLKAYVLY [R17A] showed an abundance fitness of 0.371 ± 0.054. With RSLKHLCRLKIRKCMGCLHLRCPVFMSFLPLPNRLKAYVLY [R17C] the abundance fitness was 0.153 ± 0.12. RSLKHLCRLKIRKCMGDLHLRCPVFMSFLPLPNRLKAYVLY [R17D] gave an abundance fitness of -0.07 ± 0.23. Variant RSLKHLCRLKIRKCMGELHLRCPVFMSFLPLPNRLKAYVLY [R17E] has an abundance fitness of 0.103 ± 0.053. For RSLKHLCRLKIRKCMGFLHLRCPVFMSFLPLPNRLKAYVLY [R17F], the abundance fitness was 0.551 ± 0.24. With RSLKHLCRLKIRKCMGGLHLRCPVFMSFLPLPNRLKAYVLY [R17G] the abundance fitness was 0.293 ± 0.048. For RSLKHLCRLKIRKCMGHLHLRCPVFMSFLPLPNRLKAYVLY [R17H], the abundance fitness was 0.104 ± 0.086. In the case of RSLKHLCRLKIRKCMGILHLRCPVFMSFLPLPNRLKAYVLY [R17I], the abundance fitness is reported as -0.203 ± 0.42. With RSLKHLCRLKIRKCMGKLHLRCPVFMSFLPLPNRLKAYVLY [R17K] the abundance fitness was 0.046 ± 0.068. Work on RSLKHLCRLKIRKCMGLLHLRCPVFMSFLPLPNRLKAYVLY [R17L] yielded an abundance fitness of 0.17 ± 0.065. RSLKHLCRLKIRKCMGMLHLRCPVFMSFLPLPNRLKAYVLY [R17M] showed an abundance fitness of 0.079 ± 0.085. Variant RSLKHLCRLKIRKCMGNLHLRCPVFMSFLPLPNRLKAYVLY [R17N] has an abundance fitness of -0.326 ± 0.15. Work on RSLKHLCRLKIRKCMGPLHLRCPVFMSFLPLPNRLKAYVLY [R17P] yielded an abundance fitness of -0.06 ± 0.082. RSLKHLCRLKIRKCMGQLHLRCPVFMSFLPLPNRLKAYVLY [R17Q] gave an abundance fitness of 0.13 ± 0.07. With RSLKHLCRLKIRKCMGSLHLRCPVFMSFLPLPNRLKAYVLY [R17S] the abundance fitness was 0.227 ± 0.051. RSLKHLCRLKIRKCMGTLHLRCPVFMSFLPLPNRLKAYVLY [R17T] showed an abundance fitness of -0.038 ± 0.063. Variant RSLKHLCRLKIRKCMGVLHLRCPVFMSFLPLPNRLKAYVLY [R17V] has an abundance fitness of 0.213 ± 0.05. In the case of RSLKHLCRLKIRKCMGWLHLRCPVFMSFLPLPNRLKAYVLY [R17W], the abundance fitness is reported as 0.722 ± 0.053. In the case of RSLKHLCRLKIRKCMGYLHLRCPVFMSFLPLPNRLKAYVLY [R17Y], the abundance fitness is reported as 0.506 ± 0.11. RSLKHLCRLKIRKCMGRAHLRCPVFMSFLPLPNRLKAYVLY [L18A] gave an abundance fitness of -0.544 ± 0.066. With RSLKHLCRLKIRKCMGRCHLRCPVFMSFLPLPNRLKAYVLY [L18C] the abundance fitness was -0.284 ± 0.093. RSLKHLCRLKIRKCMGREHLRCPVFMSFLPLPNRLKAYVLY [L18E] showed an abundance fitness of -0.748 ± 0.13. RSLKHLCRLKIRKCMGRFHLRCPVFMSFLPLPNRLKAYVLY [L18F] showed an abundance fitness of 0.006 ± 0.22. RSLKHLCRLKIRKCMGRGHLRCPVFMSFLPLPNRLKAYVLY [L18G] gave an abundance fitness of -0.874 ± 0.084. RSLKHLCRLKIRKCMGRIHLRCPVFMSFLPLPNRLKAYVLY [L18I] gave an abundance fitness of 0.248 ± 0.16. Variant RSLKHLCRLKIRKCMGRKHLRCPVFMSFLPLPNRLKAYVLY [L18K] has an abundance fitness of -0.774 ± 0.21. Work on RSLKHLCRLKIRKCMGRMHLRCPVFMSFLPLPNRLKAYVLY [L18M] yielded an abundance fitness of -0.071 ± 0.081. RSLKHLCRLKIRKCMGRNHLRCPVFMSFLPLPNRLKAYVLY [L18N] gave an abundance fitness of -1.07 ± 0.31. Variant RSLKHLCRLKIRKCMGRQHLRCPVFMSFLPLPNRLKAYVLY [L18Q] has an abundance fitness of -0.732 ± 0.12. For RSLKHLCRLKIRKCMGRRHLRCPVFMSFLPLPNRLKAYVLY [L18R], the abundance fitness was -0.894 ± 0.079. RSLKHLCRLKIRKCMGRSHLRCPVFMSFLPLPNRLKAYVLY [L18S] showed an abundance fitness of -0.735 ± 0.091. In the case of RSLKHLCRLKIRKCMGRTHLRCPVFMSFLPLPNRLKAYVLY [L18T], the abundance fitness is reported as -0.571 ± 0.37. Work on RSLKHLCRLKIRKCMGRVHLRCPVFMSFLPLPNRLKAYVLY [L18V] yielded an abundance fitness of -0.392 ± 0.092. Variant RSLKHLCRLKIRKCMGRLALRCPVFMSFLPLPNRLKAYVLY [H19A] has an abundance fitness of 0.171 ± 0.052. Work on RSLKHLCRLKIRKCMGRLCLRCPVFMSFLPLPNRLKAYVLY [H19C] yielded an abundance fitness of -0.236 ± 0.086. Variant RSLKHLCRLKIRKCMGRLDLRCPVFMSFLPLPNRLKAYVLY [H19D] has an abundance fitness of -0.272 ± 0.12. RSLKHLCRLKIRKCMGRLELRCPVFMSFLPLPNRLKAYVLY [H19E] showed an abundance fitness of -0.24 ± 0.1. RSLKHLCRLKIRKCMGRLFLRCPVFMSFLPLPNRLKAYVLY [H19F] showed an abundance fitness of -0.097 ± 0.072. Variant RSLKHLCRLKIRKCMGRLGLRCPVFMSFLPLPNRLKAYVLY [H19G] has an abundance fitness of 0.024 ± 0.049. Variant RSLKHLCRLKIRKCMGRLKLRCPVFMSFLPLPNRLKAYVLY [H19K] has an abundance fitness of 0.141 ± 0.05. RSLKHLCRLKIRKCMGRLLLRCPVFMSFLPLPNRLKAYVLY [H19L] showed an abundance fitness of 0.069 ± 0.051. RSLKHLCRLKIRKCMGRLMLRCPVFMSFLPLPNRLKAYVLY [H19M] gave an abundance fitness of -0.183 ± 0.09. In the case of RSLKHLCRLKIRKCMGRLPLRCPVFMSFLPLPNRLKAYVLY [H19P], the abundance fitness is reported as -0.326 ± 0.062. In the case of RSLKHLCRLKIRKCMGRLQLRCPVFMSFLPLPNRLKAYVLY [H19Q], the abundance fitness is reported as -0.004 ± 0.087.
